The values that follow come from US20170355773A1.

Numbering of substitutions follows the chain as printed.

B1: 42G2 (scFv mutant of W3072-z4C12) (scFv, V domains shown, not shown: small tags and cut ends)
VH: EVQLVESGGGLSQPGNSLQLSCEASGFTFSNHDLNWVRQAPGKGLEWVAYISSASGLISYADAVRGRFTISRDNAKNSLFLQMNNLKSEDTAMYYCARDPPYSGLYALDFWGQGTQVTVSS
VL: QPVLTQSPSASASLSGSVKLTCTLSSELSWYTIVWYQQRPDKAPKYVMYLKSDGSHSKGDGIPDRFSGSSSGAHRYLSISNVQSEDDATYFCGAGYTLAGQYGWVFGSGTKVTVL
B2: 27A3 (scFv mutant of W3072-z4C12) (scFv, V domains shown, not shown: small tags and cut ends)
VH: B1 VH with S103T
VL: B1 VL with W30S
B3: 66B8 (scFv mutant of W3072-z4C12) (scFv, V domains shown, not shown: small tags and cut ends)
VH: B1 VH
VL: B1 VL with W30S, G100N
B4: 42F9 (scFv mutant of W3072-z4C12) (scFv, V domains shown, not shown: small tags and cut ends)
VH: B1 VH
VL: B1 VL with W30F
B5: 42H8 (scFv mutant of W3072-z4C12) (scFv, V domains shown, not shown: small tags and cut ends)
VH: B1 VH
VL: B1 VL with W30Y
B6: 43F11 (scFv mutant of W3072-z4C12) (scFv, V domains shown, not shown: small tags and cut ends)
VH: B1 VH
VL: B1 VL with W30S, Y31F

One experiment has as its target TNFRSF25-Fc protein (UniProt Q93038). Description: capture ELISA, scFv, against the wild-type. (An ELISA detects its analyte on a solid surface through an enzyme-linked reagent.)
For B1, the fold increase in ELISA signal is more than 10 fold.

The target is the same in another experiment. Put plainly: single point capture ELISA: scFv on anti-c-myc, biotinylated antigen, streptavidin-HRP.
Molecule B2 returned an OD450 of 1.61.

B1: the OD450 was found to be 3.19.

In the case of B3, the OD450 came out at 0.4.

In turn, B4 returned an OD450 of 2.33.

B5 returned an OD450 of 1.67.

B6: the OD450 was found to be 1.6.
